Tests used:
[1] = target: T1, human CD3 (TCR/CD3 complex on the cell surface) (human, UniProt P07766 23-207; P04234 22-171; P09693 23-182); test: flow cytometry, Pan-T cells, 10 ug/mL
T1 construct: whole, on cells; Native CD3 on human Pan-T cells or Jurkat wild-type cells; also called CD3 on Pan-T cells; CD3 on Jurkat WT cells

[2] = target: T1, human CD3 (TCR/CD3 complex on the cell …); test: flow cytometry, Jurkat WT gMFI over Jurkat KO gMFI, 1 ug/mL
[3] = target: T1, human CD3 (TCR/CD3 complex on the cell …); test: flow cytometry, Pan-T cells, 1 ug/mL
[4] = target: T1, human CD3 (TCR/CD3 complex on the cell …); test: flow cytometry, Jurkat WT cells, 1 ug/mL
[5] = target: T1, human CD3 (TCR/CD3 complex on the cell …); test: flow cytometry, Jurkat WT gMFI over Jurkat KO gMFI, 10 ug/mL
[6] = target: T1, human CD3 (TCR/CD3 complex on the cell …); test: flow cytometry, Jurkat WT cells, 10 ug/mL

T1 sequence (P07766 23-207, chain 1 of 3): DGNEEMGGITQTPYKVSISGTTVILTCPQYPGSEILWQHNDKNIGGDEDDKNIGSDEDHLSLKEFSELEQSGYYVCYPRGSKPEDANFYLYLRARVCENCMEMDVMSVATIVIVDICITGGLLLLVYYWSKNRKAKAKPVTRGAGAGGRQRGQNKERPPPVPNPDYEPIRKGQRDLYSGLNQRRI
T1 sequence (P04234 22-171, chain 2 of 3): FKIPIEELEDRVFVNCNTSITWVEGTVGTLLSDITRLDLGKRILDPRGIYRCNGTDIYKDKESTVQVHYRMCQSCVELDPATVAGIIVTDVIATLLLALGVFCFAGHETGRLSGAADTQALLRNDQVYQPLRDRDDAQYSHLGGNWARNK
T1 sequence (P09693 23-182, chain 3 of 3): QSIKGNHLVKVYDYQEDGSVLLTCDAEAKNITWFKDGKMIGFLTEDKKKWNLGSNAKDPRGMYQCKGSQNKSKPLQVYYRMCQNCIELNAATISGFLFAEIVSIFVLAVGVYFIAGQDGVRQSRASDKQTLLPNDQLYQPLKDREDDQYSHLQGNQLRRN

% Positive [1] [%] | gMFI [1] [gMFI] | Jurkat WT/KO (Fold) [2] [fold] | % Positive [3] [%] | gMFI [3] [gMFI] | gMFI [4] [gMFI] | Jurkat WT/KO (Fold) [5] [fold] | gMFI [6] [gMFI] | Binder
99.8 | 135000 | 5.6 | 98.2 | 29600 | 16200 | 9.5 | 28400 | CD3 × CD33-BspAb93 (bispecific antibody) chain 1: NFMLTQPHSVSESPGKTVTISCTRSSGSIASKYVQWYQQRPGSSPTTVIYEDNQRPSGVPDRFSGSIDSSSNSASLTISGLKTEDEADYYCQSYYSNNRVFGCGTKLTVLGGGGSGGGGSGGGGSGGGGSEVQLVESGGGLVQPGGSLRLSCAASGFTFSRYSMNWVRQAPGKCLEWVSYISRSSTTIYYADSVKGRFTISRDNAKNSLYLQMNSLRDEDAAVYYCARERWELLYFDYWGQGTLVTVSSDKTHTCPPCPAPEFEGGPSVFLFPPKPKDTLMISRTPEVTCVVVDVSHEDPEVKFNWYVDGVEVHNAKTKPREEQYNSTYRVVSVLTVLHQDWLNGKEYKCKVSNKALPASIEKTISKAKGQPREPQVYTLPPCREEMTKNQVSLWCLVKGFYPSDIAVEWESNGQPENNYKTTPPVLDSDGSFFLYSKLTVDKSRWQQGNVFSCSVMHEALHNHYTQKSLSLSPGK chain 2: EVQLVQSGAEVKKPGSSVKVSCKASGYTITDSNIHWVRQAPGQSLEWIGYIYPYNGGTDYNQKFKNRATLTVDNPTNTAYMELSSLRSEDTAFYYCVNGNPWLAYWGQGTLVTVSSASTKGPSVFPLAPSSKSTSGGTAALGCLVKDYFPEPVTVSWNSGALTSGVHTFPAVLQSSGLYSLSSVVTVPSSSLGTQTYICNVNHKPSNTKVDKRVEPKSCDKTHTCPPCPAPEFEGGPSVFLFPPKPKDTLMISRTPEVTCVVVDVSHEDPEVKFNWYVDGVEVHNAKTKPREEQYNSTYRVVSVLTVLHQDWLNGKEYKCKVSNKALPASIEKTISKAKGQPREPQVCTLPPSREEMTKNQVSLSCAVKGFYPSDIAVEWESNGQPENNYKTTPPVLDSDGSFFLVSKLTVDKSRWQQGNVFSCSVMHEALHNRFTQKSLSLSPGK chain 3: DIQLTQSPSTLSASVGDRVTITCRASESLDNYGIRFLTWFQQKPGKAPKLLMYAASNQGSGVPSRFSGSGSGTEFTLTISSLQPDDFATYYCQQTKEVPWSFGQGTKVEVKRTVAAPSVFIFPPSDEQLKSGTASVVCLLNNFYPREAKVQWKVDNALQSGNSQESVTEQDSKDSTYSLSSTLTLSKADYEKHKVYACEVTHQGLSSPVTKSFNRGEC
99.4 | 127000 | 3.7 | 94.6 | 18500 | 8110 | 10.4 | 31600 | CD3 × CD33-BspAb91 (bispecific antibody) chain 1: DIQMTQSPSTLSASVGDRVTITCRASQSISSWLAWFQQKTGKAPKLLIYKASSLESGVPSRFSGSGSGTEFTLTISSLQPDDFATYYCQQYISYSWTFGCGTKVEIKGGGGSGGGGSGGGGSGGGGSEVQLVESGGGLVQRGGSLRLSCAASGFTFSNYWMSWVRQAPGKCLEWVANIKEDGSEKYYVDSVKGRFTISRDNAKHSLYLQMNSLRAEDTAVYYCARERRTGYFDYWGQGTLVTVSSDKTHTCPPCPAPEFEGGPSVFLFPPKPKDTLMISRTPEVTCVVVDVSHEDPEVKFNWYVDGVEVHNAKTKPREEQYNSTYRVVSVLTVLHQDWLNGKEYKCKVSNKALPASIEKTISKAKGQPREPQVYTLPPCREEMTKNQVSLWCLVKGFYPSDIAVEWESNGQPENNYKTTPPVLDSDGSFFLYSKLTVDKSRWQQGNVFSCSVMHEALHNHYTQKSLSLSPGK chain 2: EVQLVQSGAEVKKPGSSVKVSCKASGYTITDSNIHWVRQAPGQSLEWIGYIYPYNGGTDYNQKFKNRATLTVDNPTNTAYMELSSLRSEDTAFYYCVNGNPWLAYWGQGTLVTVSSASTKGPSVFPLAPSSKSTSGGTAALGCLVKDYFPEPVTVSWNSGALTSGVHTFPAVLQSSGLYSLSSVVTVPSSSLGTQTYICNVNHKPSNTKVDKRVEPKSCDKTHTCPPCPAPEFEGGPSVFLFPPKPKDTLMISRTPEVTCVVVDVSHEDPEVKFNWYVDGVEVHNAKTKPREEQYNSTYRVVSVLTVLHQDWLNGKEYKCKVSNKALPASIEKTISKAKGQPREPQVCTLPPSREEMTKNQVSLSCAVKGFYPSDIAVEWESNGQPENNYKTTPPVLDSDGSFFLVSKLTVDKSRWQQGNVFSCSVMHEALHNRFTQKSLSLSPGK chain 3: DIQLTQSPSTLSASVGDRVTITCRASESLDNYGIRFLTWFQQKPGKAPKLLMYAASNQGSGVPSRFSGSGSGTEFTLTISSLQPDDFATYYCQQTKEVPWSFGQGTKVEVKRTVAAPSVFIFPPSDEQLKSGTASVVCLLNNFYPREAKVQWKVDNALQSGNSQESVTEQDSKDSTYSLSSTLTLSKADYEKHKVYACEVTHQGLSSPVTKSFNRGEC

Second part, the binder before the results:

Binder | % Positive [1] [%] | gMFI [1] [gMFI] | Jurkat WT/KO (Fold) [2] [fold] | % Positive [3] [%] | gMFI [3] [gMFI] | gMFI [4] [gMFI] | Jurkat WT/KO (Fold) [5] [fold] | gMFI [6] [gMFI]
CD3 × CD33-BspAb90 (bispecific antibody, KiH heterodimer) scFv-Fc: not shown heavy: EVQLVQSGAEVKKPGSSVKVSCKASGYTITDSNIHWVRQAPGQSLEWIGYIYPYNGGTDYNQKFKNRATLTVDNPTNTAYMELSSLRSEDTAFYYCVNGNPWLAYWGQGTLVTVSSASTKGPSVFPLAPSSKSTSGGTAALGCLVKDYFPEPVTVSWNSGALTSGVHTFPAVLQSSGLYSLSSVVTVPSSSLGTQTYICNVNHKPSNTKVDKRVEPKSCDKTHTCPPCPAPEFEGGPSVFLFPPKPKDTLMISRTPEVTCVVVDVSHEDPEVKFNWYVDGVEVHNAKTKPREEQYNSTYRVVSVLTVLHQDWLNGKEYKCKVSNKALPASIEKTISKAKGQPREPQVCTLPPSREEMTKNQVSLSCAVKGFYPSDIAVEWESNGQPENNYKTTPPVLDSDGSFFLVSKLTVDKSRWQQGNVFSCSVMHEALHNRFTQKSLSLSPGK light: DIQLTQSPSTLSASVGDRVTITCRASESLDNYGIRFLTWFQQKPGKAPKLLMYAASNQGSGVPSRFSGSGSGTEFTLTISSLQPDDFATYYCQQTKEVPWSFGQGTKVEVKRTVAAPSVFIFPPSDEQLKSGTASVVCLLNNFYPREAKVQWKVDNALQSGNSQESVTEQDSKDSTYSLSSTLTLSKADYEKHKVYACEVTHQGLSSPVTKSFNRGEC | 98.1 | 78400 | 1.9 | 83.8 | 11600 | 4480 | 7.5 | 19400
CD3 × CD33-BspAb94 (bispecific antibody) chain 1: NFMLTQPHSVSESPGKTVTISCTRSSGSIASNYVQWYQQRPGSSPTTVIYEDNQRPSGVPDRFSGSIDSSSNSASLTISGLKTEDEADYYCQSYDSSNRVFGCGTKLTVLGGGGSGGGGSGGGGSGGGGSEVQLVESGGGLVKPGGSLRLSCAASGFTFSSYTMNWVRQAPGKCLEWVSSITTSSSYIYYADSVKGRFTISRDNAKNSLYLQMNSLRAEDTAVYYCARVTFDAFDIWGQGTMVTVSSDKTHTCPPCPAPEFEGGPSVFLFPPKPKDTLMISRTPEVTCVVVDVSHEDPEVKFNWYVDGVEVHNAKTKPREEQYNSTYRVVSVLTVLHQDWLNGKEYKCKVSNKALPASIEKTISKAKGQPREPQVYTLPPCREEMTKNQVSLWCLVKGFYPSDIAVEWESNGQPENNYKTTPPVLDSDGSFFLYSKLTVDKSRWQQGNVFSCSVMHEALHNHYTQKSLSLSPGK chain 2: EVQLVQSGAEVKKPGSSVKVSCKASGYTITDSNIHWVRQAPGQSLEWIGYIYPYNGGTDYNQKFKNRATLTVDNPTNTAYMELSSLRSEDTAFYYCVNGNPWLAYWGQGTLVTVSSASTKGPSVFPLAPSSKSTSGGTAALGCLVKDYFPEPVTVSWNSGALTSGVHTFPAVLQSSGLYSLSSVVTVPSSSLGTQTYICNVNHKPSNTKVDKRVEPKSCDKTHTCPPCPAPEFEGGPSVFLFPPKPKDTLMISRTPEVTCVVVDVSHEDPEVKFNWYVDGVEVHNAKTKPREEQYNSTYRVVSVLTVLHQDWLNGKEYKCKVSNKALPASIEKTISKAKGQPREPQVCTLPPSREEMTKNQVSLSCAVKGFYPSDIAVEWESNGQPENNYKTTPPVLDSDGSFFLVSKLTVDKSRWQQGNVFSCSVMHEALHNRFTQKSLSLSPGK chain 3: DIQLTQSPSTLSASVGDRVTITCRASESLDNYGIRFLTWFQQKPGKAPKLLMYAASNQGSGVPSRFSGSGSGTEFTLTISSLQPDDFATYYCQQTKEVPWSFGQGTKVEVKRTVAAPSVFIFPPSDEQLKSGTASVVCLLNNFYPREAKVQWKVDNALQSGNSQESVTEQDSKDSTYSLSSTLTLSKADYEKHKVYACEVTHQGLSSPVTKSFNRGEC | 4.4 | 2600 | 0.8 | 2.6 | 2050 | 1830 | 1.1 | 2190
